One block for each substance: values may come before it. Square brackets hold non-standard residues; d marks the D form. Ends that are not written are not given here. Tyr(3-NO2) = N[C@@H](Cc1ccc(O)c([N+](=O)[O-])c1)C(=O)O; Nle = CCCC[C@H](N)C(=O)O; 2Abz = Nc1ccccc1C(=O)O
Experiments:
Format in all cases: biochemical
[1] = molecular target: T1, MMP-2 (Homo sapiens, UniProt P08253); test: FRET peptide cleavage efficiency with MMP-2
T1 construct: purchased SIGMA PF023
T1 sequence (P08253 110-660): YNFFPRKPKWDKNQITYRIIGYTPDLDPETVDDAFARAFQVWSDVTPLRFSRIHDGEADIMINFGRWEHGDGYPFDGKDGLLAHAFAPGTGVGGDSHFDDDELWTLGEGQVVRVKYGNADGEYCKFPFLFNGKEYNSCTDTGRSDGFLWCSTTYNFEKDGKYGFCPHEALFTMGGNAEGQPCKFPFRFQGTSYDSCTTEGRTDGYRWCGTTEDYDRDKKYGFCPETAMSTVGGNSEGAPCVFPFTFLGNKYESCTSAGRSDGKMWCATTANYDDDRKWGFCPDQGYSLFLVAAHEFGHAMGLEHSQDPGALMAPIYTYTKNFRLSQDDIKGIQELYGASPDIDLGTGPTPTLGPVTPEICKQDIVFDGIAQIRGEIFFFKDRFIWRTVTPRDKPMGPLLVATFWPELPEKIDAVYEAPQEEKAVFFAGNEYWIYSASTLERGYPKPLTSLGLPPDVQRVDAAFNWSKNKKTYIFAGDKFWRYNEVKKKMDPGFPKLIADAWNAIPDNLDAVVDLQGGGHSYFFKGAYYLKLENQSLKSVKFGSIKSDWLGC

[2] = molecular target: T2, matriptase (Homo sapiens, UniProt Q9Y5Y6); test: FRET peptide cleavage efficiency with matriptase
T2 construct: purchased R&D Systems 3946-SEB
T2 sequence (Q9Y5Y6 615-855 limits assumed): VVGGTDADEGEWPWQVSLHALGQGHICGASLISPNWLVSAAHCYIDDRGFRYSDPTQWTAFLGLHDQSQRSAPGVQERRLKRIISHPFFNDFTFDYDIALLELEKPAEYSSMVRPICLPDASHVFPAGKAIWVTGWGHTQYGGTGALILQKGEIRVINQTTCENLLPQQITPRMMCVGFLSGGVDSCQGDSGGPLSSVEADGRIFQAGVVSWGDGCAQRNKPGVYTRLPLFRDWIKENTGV

[3] = molecular target: T3, MMP-7 (Homo sapiens, UniProt P09237); test: FRET peptide cleavage efficiency with MMP-7 (standard pH 7.5; also pH 6.5)
T3 construct: purchased SIGMA CC1059
T3 sequence (P09237 95-267): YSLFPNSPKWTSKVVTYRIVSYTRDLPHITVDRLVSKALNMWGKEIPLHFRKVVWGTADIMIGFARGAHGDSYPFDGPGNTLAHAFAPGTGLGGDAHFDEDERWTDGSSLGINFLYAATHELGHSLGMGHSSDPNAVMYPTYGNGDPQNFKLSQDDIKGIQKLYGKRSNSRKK

[4] = molecular target: T4, MMP-9 (Homo sapiens, UniProt P14780); test: FRET peptide cleavage efficiency with MMP-9 (standard pH 7.5; also pH 6.5)
T4 construct: purchased SIGMA PF024

[5] = molecular target: uPA (Homo sapiens, UniProt P00749); test: FRET peptide cleavage efficiency with uPA
[6] = t = 60 min, standard conditions (Table 8)
[7] = t = 120 min, standard conditions (Table 8)
[8] = t = 15 min, standard conditions (Table 8)

T4 sequence (P14780 94-707): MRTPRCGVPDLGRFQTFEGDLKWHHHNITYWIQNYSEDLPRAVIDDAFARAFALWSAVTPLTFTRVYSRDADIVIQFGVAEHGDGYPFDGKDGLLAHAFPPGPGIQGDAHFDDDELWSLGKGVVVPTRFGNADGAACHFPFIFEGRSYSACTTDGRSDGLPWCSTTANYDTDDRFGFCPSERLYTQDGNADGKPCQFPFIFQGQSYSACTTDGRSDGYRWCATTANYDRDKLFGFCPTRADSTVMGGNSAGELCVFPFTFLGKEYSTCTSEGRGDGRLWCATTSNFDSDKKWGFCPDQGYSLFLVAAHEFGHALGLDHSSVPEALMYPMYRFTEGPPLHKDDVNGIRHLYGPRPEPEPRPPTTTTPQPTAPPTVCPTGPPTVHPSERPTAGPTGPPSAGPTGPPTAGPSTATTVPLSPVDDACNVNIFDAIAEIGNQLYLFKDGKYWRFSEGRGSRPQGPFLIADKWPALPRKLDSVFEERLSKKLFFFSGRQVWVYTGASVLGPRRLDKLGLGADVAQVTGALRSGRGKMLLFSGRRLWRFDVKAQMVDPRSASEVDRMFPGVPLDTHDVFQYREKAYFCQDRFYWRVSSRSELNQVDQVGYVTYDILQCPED

% cleavage MMP-2 t = 15 min ([1]; t = 15 min (Table 9)): 2%
% cleavage MMP-2 t = 60 min ([1]; t = 60 min (Table 9)): 5%
% cleavage MMP-2 t = 60 min [1, 6]: 5%
% cleavage MMP-2 t = 120 min ([1]; t = 120 min (Table 9)): 9%
% cleavage MMP-2 t = 120 min [1, 7]: 9%
% cleavage Matriptase t = 15 min [2, 8]: 4%
% cleavage Matriptase t = 60 min [2, 6]: 17%
% cleavage Matriptase t = 120 min ([2]; standard conditions (Table 8)): 33%
% cleavage MMP-7 t = 15 min ([3]; t = 15 min (Table 9)): 20%
% cleavage MMP-7 t = 15 min [3, 8]: 20%
% cleavage MMP-7 t = 60 min ([3]; t = 60 min (Table 9)): 65%
% cleavage MMP-7 t = 60 min [3, 6]: 65%
% cleavage MMP-7 t = 120 min ([3]; t = 120 min (Table 9)): 88%
% cleavage MMP-7 t = 120 min [3, 7]: 88%
% cleavage MMP-9 t = 15 min ([4]; t = 15 min (Table 9)): 1%
% cleavage MMP-9 t = 15 min [4, 8]: 1%
% cleavage MMP-9 t = 60 min ([4]; t = 60 min (Table 9)): 2%
% cleavage MMP-9 t = 60 min [4, 6]: 2%
% cleavage MMP-9 t = 120 min ([4]; t = 120 min (Table 9)): 4%
% cleavage MMP-9 t = 120 min [4, 7]: 4%
% vcleavage uPA t = 15 min [5, 8]: 1%
% cleavage uPA t = 60 min [5, 6]: 1%
% cleavage uPA t = 120 min [5, 7]: 2%
Substance: SGRVQPLVD (not fully specified (N-terminus, C-terminus)) [LNK047]

% cleavage MMP-2 t = 15 min ([1]; t = 15 min (Table 9)): 0%
% cleavage MMP-2 t = 60 min ([1]; t = 60 min (Table 9)): 0%
% cleavage MMP-2 t = 60 min [1, 6]: 0%
% cleavage MMP-2 t = 120 min ([1]; t = 120 min (Table 9)): 0%
% cleavage MMP-2 t = 120 min [1, 7]: 0%
% cleavage Matriptase t = 15 min [2, 8]: 0%
% cleavage Matriptase t = 60 min [2, 6]: 0%
% cleavage Matriptase t = 120 min ([2]; standard conditions (Table 8)): 0%
% cleavage MMP-7 t = 15 min ([3]; t = 15 min (Table 9)): 0%
% cleavage MMP-7 t = 15 min [3, 8]: 0%
% cleavage MMP-7 t = 60 min ([3]; t = 60 min (Table 9)): 0%
% cleavage MMP-7 t = 60 min [3, 6]: 0%
% cleavage MMP-7 t = 120 min ([3]; t = 120 min (Table 9)): 0%
% cleavage MMP-7 t = 120 min [3, 7]: 0%
% cleavage MMP-9 t = 15 min ([4]; t = 15 min (Table 9)): 0%
% cleavage MMP-9 t = 15 min [4, 8]: 0%
% cleavage MMP-9 t = 60 min ([4]; t = 60 min (Table 9)): 0%
% cleavage MMP-9 t = 60 min [4, 6]: 0%
% cleavage MMP-9 t = 120 min ([4]; t = 120 min (Table 9)): 0%
% cleavage MMP-9 t = 120 min [4, 7]: 0%
% vcleavage uPA t = 15 min [5, 8]: 0%
% cleavage uPA t = 60 min [5, 6]: 0%
% cleavage uPA t = 120 min [5, 7]: 0%
Substance: SGRVY-Nle-LQG ([2Abz]SGRVY[Nle]LQG[Tyr(3-NO2)]-NH2) [LNK045]

% cleavage MMP-2 t = 15 min ([1]; t = 15 min (Table 9)): 0%
% cleavage MMP-2 t = 60 min ([1]; t = 60 min (Table 9)): 0%
% cleavage MMP-2 t = 60 min [1, 6]: 0%
% cleavage MMP-2 t = 120 min ([1]; t = 120 min (Table 9)): 1%
% cleavage MMP-2 t = 120 min [1, 7]: 1%
% cleavage Matriptase t = 15 min [2, 8]: 0%
% cleavage Matriptase t = 60 min [2, 6]: 0%
% cleavage Matriptase t = 120 min ([2]; standard conditions (Table 8)): 0%
% cleavage MMP-7 t = 15 min ([3]; t = 15 min (Table 9)): 1%
% cleavage MMP-7 t = 15 min [3, 8]: 1%
% cleavage MMP-7 t = 60 min ([3]; t = 60 min (Table 9)): 4%
% cleavage MMP-7 t = 60 min [3, 6]: 4%
% cleavage MMP-7 t = 120 min ([3]; t = 120 min (Table 9)): 9%
% cleavage MMP-7 t = 120 min [3, 7]: 9%
% cleavage MMP-9 t = 15 min ([4]; t = 15 min (Table 9)): 0%
% cleavage MMP-9 t = 15 min [4, 8]: 0%
% cleavage MMP-9 t = 60 min ([4]; t = 60 min (Table 9)): 1%
% cleavage MMP-9 t = 60 min [4, 6]: 1%
% cleavage MMP-9 t = 120 min ([4]; t = 120 min (Table 9)): 2%
% cleavage MMP-9 t = 120 min [4, 7]: 2%
% vcleavage uPA t = 15 min [5, 8]: 0%
% cleavage uPA t = 60 min [5, 6]: 0%
% cleavage uPA t = 120 min [5, 7]: 0%
Substance: SGRVYMLQG ([2Abz]SGRVYMLQG[Tyr(3-NO2)]-NH2) [LNK044]

% cleavage MMP-2 t = 15 min ([1]; pH 6.5, t = 15 min (Table 7)): 32%
% cleavage MMP-2 t = 60 min ([1]; pH 6.5, t = 60 min (Table 7)): 74%
% cleavage MMP-2 t = 15 min ([1]; pH 7.5, t = 15 min (Table 7)): 36%
% cleavage MMP-2 t = 60 min ([1]; pH 7.5, t = 60 min (Table 7)): 84%
% cleavage MMP-2 t = 15 min ([1]; t = 15 min (Table 9)): 27%
% cleavage MMP-2 t = 15 min ([1]; t = 15 min, 200 uM linker, 1 ug/ml protease, 37° C., buffer C pH 7.5): 31%
% cleavage MMP-2 t = 60 min ([1]; t = 60 min (Table 9)): 79%
% cleavage MMP-2 t = 60 min ([1]; t = 60 min, 200 uM linker, 1 ug/ml protease, 37° C., buffer C pH 7.5): 81%
% cleavage MMP-2 t = 120 min ([1]; t = 120 min (Table 9)): 94%
% cleavage MMP-2 t = 120 min ([1]; t = 120 min, 200 uM linker, 1 ug/ml protease, 37° C., buffer C pH 7.5): 96%
% cleavage Matriptase t = 15 min ([2]; pH 6.5, t = 15 min (Table 7)): 0%
% cleavage Matriptase t = 60 min ([2]; pH 6.5, t = 60 min (Table 7)): 0%
% cleavage Matriptase t = 15 min ([2]; pH 7.5, t = 15 min (Table 7)): 0%
% cleavage Matriptase t = 60 min ([2]; pH 7.5, t = 60 min (Table 7)): 0%
% cleavage Matriptase t = 15 min ([2]; t = 15 min, 200 uM linker, 1 ug/ml protease, 37° C., buffer B pH 9.0): 8%
% cleavage Matriptase t = 60 min ([2]; t = 60 min, 200 uM linker, 1 ug/ml protease, 37° C., buffer B pH 9.0): 9%
% cleavage Matriptase t = 120 min ([2]; 200 uM linker, 1 ug/ml protease, 37° C., buffer B pH 9.0): 11%
% cleavage MMP-7 t = 15 min ([3]; t = 15 min (Table 9)): 40%
% cleavage MMP-7 t = 60 min ([3]; t = 60 min (Table 9)): 0%
% cleavage MMP-7 t = 120 min ([3]; t = 120 min (Table 9)): 100%
% cleavage MMP-9 t = 15 min ([4]; t = 15 min (Table 9)): 63%
% cleavage MMP-9 t = 60 min ([4]; t = 60 min (Table 9)): 99%
% cleavage MMP-9 t = 120 min ([4]; t = 120 min (Table 9)): 100%
% cleavage uPA t = 60 min ([5]; pH 6.5, t = 60 min (Table 7)): 0%
% cleavage uPA t = 120 min ([5]; pH 6.5, t = 120 min (Table 7)): 0%
% cleavage uPA t = 60 min ([5]; pH 7.5, t = 60 min (Table 7)): 0%
% cleavage uPA t = 120 min ([5]; pH 7.5, t = 120 min (Table 7)): 0%
% cleavage uPA t = 15 min ([5]; t = 15 min, 200 uM linker, 1 ug/ml protease, 37° C., buffer A pH 8.5): 0%
% cleavage uPA t = 60 min ([5]; t = 60 min, 200 uM linker, 1 ug/ml protease, 37° C., buffer A pH 8.5): 1%
% cleavage uPA t = 120 min ([5]; t = 120 min, 200 uM linker, 1 ug/ml protease, 37° C., buffer A pH 8.5): 3%
Substance: SSRGPYMLQG ([2Abz]SSRGPYMLQG[Tyr(3-NO2)]-NH2) [LNK022]

Source: patent US20240400614A1, “CLEAVABLE PEPTIDES AND METHODS OF USE THEREOF” (Bright Peak Therapeutics AG, priority 2023, published 2024)
